In patent publication US20220048967A1 (published 2022):
Numbering of substitutions follows the chain as printed. Numbered stars: 1 amine (or outer) side, 2 acyl side, 3 side chain; on linkers, the order of the positions; unused ones are H or OH. Square brackets hold non-standard residues; d marks the D form. Side chains are listed from the residue outwards. Ends that are not written are not given here. * marks the point of attachment. C20 diacid = O=C(O)CCCCCCCCCCCCCCCCCCC(=O)*; γGlu = O=C(O)[C@H](CCC(=O)[*:2])N[*:1]; Desaminohistidyl = O=C(CCc1c[nH]cn1)*; αMeF = C[C@](N)(Cc1ccccc1)C(=O)O; AEEA = NCCOCCOCC(=O)O; Aib = CC(C)(N)C(=O)O

B1: Example 105 (peptide)
peptide: [Desaminohistidyl][Aib]EGTFTSDYSILLDKK([AEEA-AEEA-γGlu-C20 diacid])AQ[Aib]AFIEYLIEGGPSSGAPPPS-NH2
modifications: also: ψ[NHCO] bond between DesHis1 and Aib2
B2: Example 106 (peptide)
peptide: [Desaminohistidyl][Aib]EGTFTSDYSILLDKK([AEEA-AEEA-γGlu-C20 diacid])AQ[Aib]AFIEYLIEGGPSSGAPPPS-NH2
B3: Example 107 (peptide)
peptide: XXEGTFTSDYSILLDKKAQXAFIEYLIEGGPSSGAPPPS
modifications: DesTyr1; Aib2; K17((2-[2-(2-Amino-ethoxy)-ethoxy]-acetyl)2-(γ-Glu)-CO-(CH2)18-CO2H); Aib20; C-terminal NH2
B4: Example 110 (peptide)
peptide: B3 peptide with X1Y
modifications: Aib2; K17((2-[2-(2-Amino-ethoxy)-ethoxy]-acetyl)-(γ-Glu)-(Trx)-CO-(CH2)18-CO2H); Aib20; C-terminal NH2
B5: Example 113 (peptide)
peptide: B3 peptide with X1Y
modifications: Aib2; K17((2-[2-(2-Amino-ethoxy)-ethoxy]-acetyl)2-(ϵK)-CO-(CH2)18-CO2H); Aib20; C-terminal NH2
B6: Example 112 (peptide)
peptide: B3 peptide with X1Y
modifications: Aib2; K17((2-[2-(2-Amino-ethoxy)-ethoxy]-acetyl)-(ϵK)-(γ-Glu)-CO-(CH2)18-CO2H); Aib20; C-terminal NH2
B7: Example 8 (peptide)
peptide: B3 peptide with X1Y
modifications: Aib2; K17((2-[2-(2-Amino-ethoxy)-ethoxy]-acetyl)2-(γ-Glu)-CO-(CH2)18-CO2H); Aib20; C-terminal NH2
B8: Example 7 (peptide)
peptide: Y[Aib]EGTFTSDYSILLDSK([AEEA-AEEA-γGlu-C20 diacid])AQ[Aib]AFIEYLLEGGPSSGAPPPS-NH2
modifications: N-terminus assumed
SMILES: CC[C@H](C)[C@H](NC(=O)[C@H](Cc1ccccc1)NC(=O)[C@H](C)NC(=O)C(C)(C)NC(=O)[C@H](CCC(N)=O)NC(=O)[C@H](C)NC(=O)[C@H](CCCCNC(=O)COCCOCCNC(=O)COCCOCCNC(=O)CC[C@H](NC(=O)CCCCCCCCCCCCCCCCCCC(=O)O)C(=O)O)NC(=O)[C@H](CO)NC(=O)[C@H](CC(=O)O)NC(=O)[C@H](CC(C)C)NC(=O)[C@H](CC(C)C)NC(=O)[C@@H](NC(=O)[C@H](CO)NC(=O)[C@H](Cc1ccc(O)cc1)NC(=O)[C@H](CC(=O)O)NC(=O)[C@H](CO)NC(=O)[C@@H](NC(=O)[C@H](Cc1ccccc1)NC(=O)[C@@H](NC(=O)CNC(=O)[C@H](CCC(=O)O)NC(=O)C(C)(C)NC(=O)[C@@H](N)Cc1ccc(O)cc1)[C@@H](C)O)[C@@H](C)O)[C@@H](C)CC)C(=O)N[C@@H](CCC(=O)O)C(=O)N[C@@H](Cc1ccc(O)cc1)C(=O)N[C@@H](CC(C)C)C(=O)N[C@@H](CC(C)C)C(=O)N[C@@H](CCC(=O)O)C(=O)NCC(=O)NCC(=O)N1CCC[C@H]1C(=O)N[C@@H](CO)C(=O)N[C@@H](CO)C(=O)NCC(=O)N[C@@H](C)C(=O)N1CCC[C@H]1C(=O)N1CCC[C@H]1C(=O)N1CCC[C@H]1C(=O)N[C@@H](CO)C(N)=O
B9: Example 6 (peptide)
peptide: Y[Aib]EGTFTSDYSILLDKK([AEEA-AEEA-γGlu-C20 diacid])AQ[Aib]AFIEYLLEGGPSSGAPPPS-NH2
modifications: N-terminus assumed
SMILES: CC[C@H](C)[C@H](NC(=O)[C@H](Cc1ccccc1)NC(=O)[C@H](C)NC(=O)C(C)(C)NC(=O)[C@H](CCC(N)=O)NC(=O)[C@H](C)NC(=O)[C@H](CCCCNC(=O)COCCOCCNC(=O)COCCOCCNC(=O)CC[C@H](NC(=O)CCCCCCCCCCCCCCCCCCC(=O)O)C(=O)O)NC(=O)[C@H](CCCCN)NC(=O)[C@H](CC(=O)O)NC(=O)[C@H](CC(C)C)NC(=O)[C@H](CC(C)C)NC(=O)[C@@H](NC(=O)[C@H](CO)NC(=O)[C@H](Cc1ccc(O)cc1)NC(=O)[C@H](CC(=O)O)NC(=O)[C@H](CO)NC(=O)[C@@H](NC(=O)[C@H](Cc1ccccc1)NC(=O)[C@@H](NC(=O)CNC(=O)[C@H](CCC(=O)O)NC(=O)C(C)(C)NC(=O)[C@@H](N)Cc1ccc(O)cc1)[C@@H](C)O)[C@@H](C)O)[C@@H](C)CC)C(=O)N[C@@H](CCC(=O)O)C(=O)N[C@@H](Cc1ccc(O)cc1)C(=O)N[C@@H](CC(C)C)C(=O)N[C@@H](CC(C)C)C(=O)N[C@@H](CCC(=O)O)C(=O)NCC(=O)NCC(=O)N1CCC[C@H]1C(=O)N[C@@H](CO)C(=O)N[C@@H](CO)C(=O)NCC(=O)N[C@@H](C)C(=O)N1CCC[C@H]1C(=O)N1CCC[C@H]1C(=O)N1CCC[C@H]1C(=O)N[C@@H](CO)C(N)=O
B10: Example 9 (peptide)
peptide: Y[Aib]EGTFTSDYSILLDSK([AEEA-AEEA-γGlu-C20 diacid])AQ[Aib]AFIEYLIEGGPSSGAPPPS-NH2
modifications: N-terminus assumed
SMILES: CC[C@H](C)[C@H](NC(=O)[C@H](CC(C)C)NC(=O)[C@H](Cc1ccc(O)cc1)NC(=O)[C@H](CCC(=O)O)NC(=O)[C@@H](NC(=O)[C@H](Cc1ccccc1)NC(=O)[C@H](C)NC(=O)C(C)(C)NC(=O)[C@H](CCC(N)=O)NC(=O)[C@H](C)NC(=O)[C@H](CCCCNC(=O)COCCOCCNC(=O)COCCOCCNC(=O)CC[C@H](NC(=O)CCCCCCCCCCCCCCCCCCC(=O)O)C(=O)O)NC(=O)[C@H](CO)NC(=O)[C@H](CC(=O)O)NC(=O)[C@H](CC(C)C)NC(=O)[C@H](CC(C)C)NC(=O)[C@@H](NC(=O)[C@H](CO)NC(=O)[C@H](Cc1ccc(O)cc1)NC(=O)[C@H](CC(=O)O)NC(=O)[C@H](CO)NC(=O)[C@@H](NC(=O)[C@H](Cc1ccccc1)NC(=O)[C@@H](NC(=O)CNC(=O)[C@H](CCC(=O)O)NC(=O)C(C)(C)NC(=O)[C@@H](N)Cc1ccc(O)cc1)[C@@H](C)O)[C@@H](C)O)[C@@H](C)CC)[C@@H](C)CC)C(=O)N[C@@H](CCC(=O)O)C(=O)NCC(=O)NCC(=O)N1CCC[C@H]1C(=O)N[C@@H](CO)C(=O)N[C@@H](CO)C(=O)NCC(=O)N[C@@H](C)C(=O)N1CCC[C@H]1C(=O)N1CCC[C@H]1C(=O)N1CCC[C@H]1C(=O)N[C@@H](CO)C(N)=O
B11: Example 117 (peptide)
peptide: Y[Aib]EGT[αMeF]TSDYSI[Aib]LDEK([AEEA-AEEA-γGlu-C20 diacid])AQ[Aib]AFIEYLIEGGPSSGAPPPS-NH2
modifications: N-terminus assumed
SMILES: CC[C@H](C)[C@H](NC(=O)[C@H](CC(C)C)NC(=O)[C@H](Cc1ccc(O)cc1)NC(=O)[C@H](CCC(=O)O)NC(=O)[C@@H](NC(=O)[C@H](Cc1ccccc1)NC(=O)[C@H](C)NC(=O)C(C)(C)NC(=O)[C@H](CCC(N)=O)NC(=O)[C@H](C)NC(=O)[C@H](CCCCNC(=O)COCCOCCNC(=O)COCCOCCNC(=O)CC[C@H](NC(=O)CCCCCCCCCCCCCCCCCCC(=O)O)C(=O)O)NC(=O)[C@H](CCC(=O)O)NC(=O)[C@H](CC(=O)O)NC(=O)[C@H](CC(C)C)NC(=O)C(C)(C)NC(=O)[C@@H](NC(=O)[C@H](CO)NC(=O)[C@H](Cc1ccc(O)cc1)NC(=O)[C@H](CC(=O)O)NC(=O)[C@H](CO)NC(=O)[C@@H](NC(=O)[C@](C)(Cc1ccccc1)NC(=O)[C@@H](NC(=O)CNC(=O)[C@H](CCC(=O)O)NC(=O)C(C)(C)NC(=O)[C@@H](N)Cc1ccc(O)cc1)[C@@H](C)O)[C@@H](C)O)[C@@H](C)CC)[C@@H](C)CC)C(=O)N[C@@H](CCC(=O)O)C(=O)NCC(=O)NCC(=O)N1CCC[C@H]1C(=O)N[C@@H](CO)C(=O)N[C@@H](CO)C(=O)NCC(=O)N[C@@H](C)C(=O)N1CCC[C@H]1C(=O)N1CCC[C@H]1C(=O)N1CCC[C@H]1C(=O)N[C@@H](CO)C(N)=O

What follows are binders tested against T1, human GIP receptor (human, UniProt P48546 22-466) (assay: cell-based or functional assay).
T1 sequence (looked up): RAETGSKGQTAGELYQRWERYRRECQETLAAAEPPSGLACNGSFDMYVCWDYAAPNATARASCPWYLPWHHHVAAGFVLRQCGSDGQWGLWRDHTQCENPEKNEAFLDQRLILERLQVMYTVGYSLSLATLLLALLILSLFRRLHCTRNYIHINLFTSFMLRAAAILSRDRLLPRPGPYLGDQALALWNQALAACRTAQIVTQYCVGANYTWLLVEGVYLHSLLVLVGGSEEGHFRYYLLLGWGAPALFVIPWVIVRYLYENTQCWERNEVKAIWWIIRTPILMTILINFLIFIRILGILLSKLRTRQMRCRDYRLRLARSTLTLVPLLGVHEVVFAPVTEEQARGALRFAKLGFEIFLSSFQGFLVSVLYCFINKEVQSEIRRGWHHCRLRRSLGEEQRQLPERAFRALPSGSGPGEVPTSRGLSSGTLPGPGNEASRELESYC

Binder	hGIPR cAMP EC50 ratio	hGIPR cAMP Rel EC50 [nM]
B1	0.101	1.85
B2	0.0302	6.54
B3	0.747	0.241
B4		0.218
B5		0.166
B6		0.124
B7		0.0848
B8	0.317	0.461
B9	2.09	0.0899
B10	0.768	0.21
B11	2.44	0.0648

Each binder was assayed against human GLP-1 receptor (human, UniProt P43220 24-463) (assay: cell-based or functional assay).

Binder	hGLP1R cAMP EC50 ratio	hGLP1R cAMP Rel EC50 [nM]
B1	1.51	0.0401
B2	1.42	0.0413
B3	1.1	0.0539
B4		0.179
B5		0.233
B6		0.16
B7		0.148
B8	0.13	0.47
B9	0.185	0.374
B10	0.314	0.194
B11	0.998	0.0615
